Experimental data published in article PMC3716865.

Experiments:
[1] = target: Intracellular part of Medicago truncatula Cytokinin Receptor 1 (MtCRE1′) (Medicago truncatula); assay: SEC
[2] = target: Intracellular part of Medicago truncatula Cytokinin Receptor 1 (MtCRE1′) (Medicago truncatula); assay: dynamic light scattering

- stoichiometry N [1]: 2
- stoichiometry N [2]: 2
Substance: Intracellular part of Medicago truncatula Cytokinin Receptor 1 (MtCRE1′) (domain or fragment)
